This is an account of results in patent EP2308896A1 (Sanofi-Aventis, dated 2011).

In this assay the target is hRAGE (human, UniProt Q15109 23-342, limits assumed). The assay is described as follows: competition ELISA, hRAGE-S100B interaction. (In general: ELISA stands for enzyme-linked immunosorbent assay.)
Sequence of hRAGE (Q15109 23-342 limits assumed): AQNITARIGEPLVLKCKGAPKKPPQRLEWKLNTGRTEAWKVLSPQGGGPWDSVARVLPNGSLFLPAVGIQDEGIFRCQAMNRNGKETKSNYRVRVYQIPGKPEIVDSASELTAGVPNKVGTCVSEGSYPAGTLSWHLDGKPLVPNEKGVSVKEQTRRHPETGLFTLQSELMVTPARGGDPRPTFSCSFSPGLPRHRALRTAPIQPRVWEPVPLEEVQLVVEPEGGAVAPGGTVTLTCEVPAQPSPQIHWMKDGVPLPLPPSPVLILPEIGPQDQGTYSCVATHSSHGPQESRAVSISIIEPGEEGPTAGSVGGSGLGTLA

B1: 158 RAGE-1 (antibody, V domains shown)
VH: QIQLVQSGPELKKPGETVKISCKASGYTFTDYSMHWVKQAPGKGLKWMGWINTETGEPTYADDFKGRFAFSLETSASTAYLLINNLKTEDTATYFCARDYLYYYAMDYWGQGTSVTVSS
VL: DVVLTQTPLSLPVNIGDQASISCKSTKSLLNSDGFTYLDWYLQKPGQSPQLLIYLVSNRFSGVPDRFSGSGSGTDFTLKISRVEAEDLGVYYCFQSNYLPLTFGGGTKVEIK
notes: Anti-RAGE monoclonal antibody (hybridoma; captured by anti-mouse Fc in Biacore); also called LP08105
With B1, the IC50 (commonly the concentration that gives 50% inhibition) was 0.72 nM.
